Data published in US20050096288.

Molecular target: VLDL (apolipoprotein B-100 containing) (Homo sapiens) (UniProt P04114)
Experiment: EMSA
Details: LDL has greater affinity

Chain of UniProt P04114 (P04114 28-4563): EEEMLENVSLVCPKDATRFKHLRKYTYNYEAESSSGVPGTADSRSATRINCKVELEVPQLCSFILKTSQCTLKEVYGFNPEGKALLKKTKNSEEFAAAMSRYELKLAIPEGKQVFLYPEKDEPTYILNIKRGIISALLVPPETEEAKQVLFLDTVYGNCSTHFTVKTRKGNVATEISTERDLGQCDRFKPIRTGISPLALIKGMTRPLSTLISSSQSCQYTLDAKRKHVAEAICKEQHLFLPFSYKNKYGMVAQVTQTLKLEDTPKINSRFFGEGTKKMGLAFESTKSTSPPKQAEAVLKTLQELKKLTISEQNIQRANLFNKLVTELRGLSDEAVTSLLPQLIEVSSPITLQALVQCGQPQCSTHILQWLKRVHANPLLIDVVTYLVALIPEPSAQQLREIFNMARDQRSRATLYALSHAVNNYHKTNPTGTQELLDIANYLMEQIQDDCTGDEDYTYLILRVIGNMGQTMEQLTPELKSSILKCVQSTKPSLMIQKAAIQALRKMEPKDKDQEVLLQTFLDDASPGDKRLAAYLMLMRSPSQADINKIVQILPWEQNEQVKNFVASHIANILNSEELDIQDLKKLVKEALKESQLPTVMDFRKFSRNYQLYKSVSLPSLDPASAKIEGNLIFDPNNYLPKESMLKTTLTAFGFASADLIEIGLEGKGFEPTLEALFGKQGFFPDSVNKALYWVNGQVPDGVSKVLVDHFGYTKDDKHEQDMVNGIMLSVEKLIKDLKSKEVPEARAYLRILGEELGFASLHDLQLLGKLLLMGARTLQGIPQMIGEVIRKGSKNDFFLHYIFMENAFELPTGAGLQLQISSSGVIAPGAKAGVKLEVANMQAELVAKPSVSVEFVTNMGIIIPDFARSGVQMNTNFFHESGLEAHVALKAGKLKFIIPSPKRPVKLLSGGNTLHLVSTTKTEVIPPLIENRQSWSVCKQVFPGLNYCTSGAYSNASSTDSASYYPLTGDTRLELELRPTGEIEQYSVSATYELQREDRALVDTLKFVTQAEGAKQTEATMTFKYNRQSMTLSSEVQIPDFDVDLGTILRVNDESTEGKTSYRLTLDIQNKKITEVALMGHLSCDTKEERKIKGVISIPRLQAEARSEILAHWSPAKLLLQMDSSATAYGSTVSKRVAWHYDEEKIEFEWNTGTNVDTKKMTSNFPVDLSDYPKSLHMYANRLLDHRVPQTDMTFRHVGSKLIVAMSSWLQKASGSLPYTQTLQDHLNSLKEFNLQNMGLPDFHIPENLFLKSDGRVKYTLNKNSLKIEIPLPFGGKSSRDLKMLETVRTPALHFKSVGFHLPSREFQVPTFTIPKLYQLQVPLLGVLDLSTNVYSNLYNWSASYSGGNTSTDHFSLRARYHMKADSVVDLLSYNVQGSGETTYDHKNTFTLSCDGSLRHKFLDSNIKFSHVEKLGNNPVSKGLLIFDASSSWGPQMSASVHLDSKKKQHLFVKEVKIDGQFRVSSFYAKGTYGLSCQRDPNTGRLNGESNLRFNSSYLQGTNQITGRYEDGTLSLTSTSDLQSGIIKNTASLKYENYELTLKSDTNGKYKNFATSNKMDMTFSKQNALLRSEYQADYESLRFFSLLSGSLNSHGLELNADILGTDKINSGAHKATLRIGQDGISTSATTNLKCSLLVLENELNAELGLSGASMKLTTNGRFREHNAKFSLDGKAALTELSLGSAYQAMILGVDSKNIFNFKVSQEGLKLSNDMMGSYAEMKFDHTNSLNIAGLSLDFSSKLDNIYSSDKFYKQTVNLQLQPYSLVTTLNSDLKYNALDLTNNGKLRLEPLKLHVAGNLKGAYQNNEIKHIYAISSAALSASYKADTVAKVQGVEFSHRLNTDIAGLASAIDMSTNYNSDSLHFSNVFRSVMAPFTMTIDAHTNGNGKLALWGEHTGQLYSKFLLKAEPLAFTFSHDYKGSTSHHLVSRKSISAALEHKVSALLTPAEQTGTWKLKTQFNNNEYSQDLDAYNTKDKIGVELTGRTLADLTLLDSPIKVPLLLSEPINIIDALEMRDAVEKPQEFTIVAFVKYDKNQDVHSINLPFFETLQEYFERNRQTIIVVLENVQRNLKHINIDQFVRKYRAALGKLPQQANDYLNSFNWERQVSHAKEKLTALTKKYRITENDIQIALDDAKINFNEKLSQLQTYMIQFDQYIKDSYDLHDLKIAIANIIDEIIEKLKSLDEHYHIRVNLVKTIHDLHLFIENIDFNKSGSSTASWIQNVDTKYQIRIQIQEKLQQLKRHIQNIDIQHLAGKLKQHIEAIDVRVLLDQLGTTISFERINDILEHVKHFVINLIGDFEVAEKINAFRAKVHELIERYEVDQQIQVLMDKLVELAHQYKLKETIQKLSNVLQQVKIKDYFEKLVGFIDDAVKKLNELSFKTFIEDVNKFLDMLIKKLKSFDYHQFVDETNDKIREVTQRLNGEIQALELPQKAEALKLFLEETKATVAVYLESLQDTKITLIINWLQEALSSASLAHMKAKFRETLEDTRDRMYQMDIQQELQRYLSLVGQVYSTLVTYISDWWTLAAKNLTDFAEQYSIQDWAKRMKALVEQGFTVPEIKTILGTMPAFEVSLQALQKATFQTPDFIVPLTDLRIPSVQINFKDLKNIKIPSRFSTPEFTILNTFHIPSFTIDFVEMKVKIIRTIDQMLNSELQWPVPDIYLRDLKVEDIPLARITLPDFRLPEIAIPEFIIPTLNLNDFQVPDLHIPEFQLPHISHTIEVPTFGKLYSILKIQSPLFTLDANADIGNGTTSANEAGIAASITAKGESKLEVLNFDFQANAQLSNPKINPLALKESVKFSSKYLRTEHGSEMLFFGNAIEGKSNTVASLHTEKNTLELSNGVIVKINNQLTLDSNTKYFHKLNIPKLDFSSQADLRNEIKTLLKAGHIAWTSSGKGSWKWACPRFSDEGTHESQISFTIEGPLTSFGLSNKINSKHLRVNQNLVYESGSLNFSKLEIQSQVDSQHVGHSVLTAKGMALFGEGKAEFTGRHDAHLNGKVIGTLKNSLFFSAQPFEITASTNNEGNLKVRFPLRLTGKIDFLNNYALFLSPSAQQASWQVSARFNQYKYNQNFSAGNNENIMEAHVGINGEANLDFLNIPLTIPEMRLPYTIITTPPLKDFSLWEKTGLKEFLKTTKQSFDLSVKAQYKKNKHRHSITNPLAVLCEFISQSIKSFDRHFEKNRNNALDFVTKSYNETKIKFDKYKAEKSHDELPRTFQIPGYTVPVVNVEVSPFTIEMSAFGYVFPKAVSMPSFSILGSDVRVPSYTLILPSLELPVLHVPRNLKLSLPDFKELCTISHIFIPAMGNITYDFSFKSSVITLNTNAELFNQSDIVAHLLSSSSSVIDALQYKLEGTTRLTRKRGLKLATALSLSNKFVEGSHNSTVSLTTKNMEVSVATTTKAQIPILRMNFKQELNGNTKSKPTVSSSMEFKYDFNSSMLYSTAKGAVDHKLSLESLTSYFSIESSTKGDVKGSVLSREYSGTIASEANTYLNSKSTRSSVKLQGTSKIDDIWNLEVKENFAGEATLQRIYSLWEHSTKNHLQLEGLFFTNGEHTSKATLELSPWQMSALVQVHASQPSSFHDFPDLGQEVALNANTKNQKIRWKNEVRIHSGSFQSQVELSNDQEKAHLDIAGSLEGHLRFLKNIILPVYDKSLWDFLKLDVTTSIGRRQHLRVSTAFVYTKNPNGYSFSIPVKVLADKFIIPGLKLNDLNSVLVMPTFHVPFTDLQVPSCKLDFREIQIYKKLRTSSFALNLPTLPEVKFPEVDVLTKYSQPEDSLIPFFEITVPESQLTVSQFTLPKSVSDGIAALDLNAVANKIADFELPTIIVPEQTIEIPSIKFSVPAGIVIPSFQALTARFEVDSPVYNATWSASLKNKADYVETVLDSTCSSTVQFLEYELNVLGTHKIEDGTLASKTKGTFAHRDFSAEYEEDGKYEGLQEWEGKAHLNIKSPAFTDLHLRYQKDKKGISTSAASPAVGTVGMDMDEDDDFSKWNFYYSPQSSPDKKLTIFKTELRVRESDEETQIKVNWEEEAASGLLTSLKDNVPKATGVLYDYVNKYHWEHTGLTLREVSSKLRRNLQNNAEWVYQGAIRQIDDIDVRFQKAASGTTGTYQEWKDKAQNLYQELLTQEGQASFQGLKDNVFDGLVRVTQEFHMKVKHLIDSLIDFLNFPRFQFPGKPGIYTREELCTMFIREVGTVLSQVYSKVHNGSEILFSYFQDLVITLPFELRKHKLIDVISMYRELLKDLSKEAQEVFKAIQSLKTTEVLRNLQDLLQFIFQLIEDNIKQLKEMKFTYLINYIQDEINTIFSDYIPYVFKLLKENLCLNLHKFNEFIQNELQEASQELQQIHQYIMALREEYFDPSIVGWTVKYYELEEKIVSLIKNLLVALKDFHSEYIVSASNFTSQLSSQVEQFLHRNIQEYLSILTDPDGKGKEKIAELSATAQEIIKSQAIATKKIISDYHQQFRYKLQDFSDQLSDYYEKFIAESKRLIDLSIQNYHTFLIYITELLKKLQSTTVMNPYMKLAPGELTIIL

For SRE oligonucleotide, which binding signal (% of total labeled DNA) is on record?
The binding signal (% of total labeled DNA) was < 1.

How did the binding signal (% of total labeled DNA) turn out when “E/C oligonucleotide (E-box CANNTG and CCAAT)” was run?
The binding signal (% of total labeled DNA) was < 1.
